# Results as given in PMC9482650, “Quantitative fragmentomics allow affinity mapping of interactomes” (Nature Communications, 2022).
# T1: ARHGEF11, O15085
# T1 sequence (O15085 42-136, limits assumed, looked up): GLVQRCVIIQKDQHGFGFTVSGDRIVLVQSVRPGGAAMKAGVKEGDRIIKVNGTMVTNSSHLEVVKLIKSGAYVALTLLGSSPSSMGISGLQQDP
# T2: DFNB31_1, Q9P202
# T2 sequence (Q9P202 135-233, limits assumed, looked up): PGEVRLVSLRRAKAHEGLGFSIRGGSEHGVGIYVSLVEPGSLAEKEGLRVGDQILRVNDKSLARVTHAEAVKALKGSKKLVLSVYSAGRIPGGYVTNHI
# T3: DFNB31_3, Q9P202
# T3 sequence (Q9P202 811-907, limits assumed, looked up): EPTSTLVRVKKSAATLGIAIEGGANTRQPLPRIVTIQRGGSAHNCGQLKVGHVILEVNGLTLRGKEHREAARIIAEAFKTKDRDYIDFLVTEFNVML
# T4: DLG3_3, Q92796
# T4 sequence (Q92796 374-475, limits assumed, looked up): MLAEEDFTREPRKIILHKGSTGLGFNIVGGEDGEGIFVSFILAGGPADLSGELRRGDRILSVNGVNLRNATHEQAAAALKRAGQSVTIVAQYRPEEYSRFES
# T5: GRIP1_3, Q9Y3R0
# T5 sequence (Q9Y3R0 247-346, limits assumed, looked up): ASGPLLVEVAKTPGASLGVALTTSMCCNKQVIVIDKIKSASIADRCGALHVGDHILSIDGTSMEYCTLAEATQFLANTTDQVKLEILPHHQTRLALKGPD
# T6: GRIP1_4, Q9Y3R0
# T6 sequence (Q9Y3R0 467-571, limits assumed, looked up): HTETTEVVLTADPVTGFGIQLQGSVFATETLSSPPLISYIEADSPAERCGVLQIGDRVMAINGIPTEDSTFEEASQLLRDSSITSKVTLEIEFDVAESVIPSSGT
# T7: HTRA3, P83110
# T7 sequence (P83110 354-453, limits assumed, looked up): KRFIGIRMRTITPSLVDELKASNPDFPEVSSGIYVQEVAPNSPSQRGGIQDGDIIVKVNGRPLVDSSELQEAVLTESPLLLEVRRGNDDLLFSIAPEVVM
# T8: LIN7B, Q9HAP6
# T8 sequence (Q9HAP6 88-185, limits assumed, looked up): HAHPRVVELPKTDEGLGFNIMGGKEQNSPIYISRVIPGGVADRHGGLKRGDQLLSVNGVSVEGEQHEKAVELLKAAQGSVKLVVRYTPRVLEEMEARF
# T9: LIN7C, Q9NUP9
# T9 sequence (Q9NUP9 88-185, limits assumed, looked up): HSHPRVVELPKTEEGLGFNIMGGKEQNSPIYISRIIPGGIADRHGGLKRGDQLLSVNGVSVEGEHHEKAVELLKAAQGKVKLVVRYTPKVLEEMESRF
# T10: MPP7, Q5T2T1
# T10 sequence (Q5T2T1 134-230, limits assumed, looked up): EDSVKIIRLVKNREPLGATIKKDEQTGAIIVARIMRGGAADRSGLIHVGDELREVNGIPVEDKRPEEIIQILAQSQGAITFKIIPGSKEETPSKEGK
# T11: PDZRN3_1, Q9UPQ7
# T11 sequence (Q9UPQ7 244-349, limits assumed, looked up): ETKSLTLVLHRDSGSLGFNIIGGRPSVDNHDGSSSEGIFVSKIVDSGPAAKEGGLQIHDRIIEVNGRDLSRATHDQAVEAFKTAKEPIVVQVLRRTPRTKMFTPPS
# T12: SIPA1L2, Q9P2F8
# T12 sequence (Q9P2F8 945-1036, limits assumed, looked up): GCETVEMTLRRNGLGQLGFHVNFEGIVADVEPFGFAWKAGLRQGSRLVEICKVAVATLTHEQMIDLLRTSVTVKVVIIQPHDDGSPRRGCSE
# T13: SNTA1, Q13424
# T13 sequence (Q13424 82-180, limits assumed, looked up): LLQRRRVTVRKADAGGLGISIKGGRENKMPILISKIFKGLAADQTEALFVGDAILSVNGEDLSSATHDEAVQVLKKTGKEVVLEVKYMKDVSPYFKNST
# How the values were obtained:
# Assay in all cases: holdup assay
# Design in all cases: key: below the threshold = too weak to quantify, mostly under pKd 3.1 to 4
# Settings in all cases: plain residues with an end cap or a label only (N-terminal biotin on a linker: ado-ado)
# ARHGEF11, O15085 = target: T1, ARHGEF11, O15085
# CASK, O14936 = target: CASK, O14936
# DFNB31_1, Q9P202 = target: T2, DFNB31_1, Q9P202
# DFNB31_3, Q9P202 = target: T3, DFNB31_3, Q9P202
# DLG3_3, Q92796 = target: T4, DLG3_3, Q92796
# DLG4_2, P78352 = target: DLG4_2, P78352
# FRMPD4, Q14CM0 = target: FRMPD4, Q14CM0
# GIPC2, Q8TF65 = target: GIPC2, Q8TF65
# GOPC, Q9HD26 = target: GOPC, Q9HD26
# GORASP1, Q9BQQ3 = target: GORASP1, Q9BQQ3
# GORASP2, Q9H8Y8 = target: GORASP2, Q9H8Y8
# GRID2IP_1, A4D2P6 = target: GRID2IP_1, A4D2P6
# GRIP1_3, Q9Y3R0 = target: T5, GRIP1_3, Q9Y3R0
# GRIP1_4, Q9Y3R0 = target: T6, GRIP1_4, Q9Y3R0
# GRIP2_5, Q9C0E4 = target: GRIP2_5, Q9C0E4
# HTRA3, P83110 = target: T7, HTRA3, P83110
# Inadl_2, Q8NI35 = target: Inadl_2, Q8NI35
# LIN7B, Q9HAP6 = target: T8, LIN7B, Q9HAP6
# LIN7C, Q9NUP9 = target: T9, LIN7C, Q9NUP9
# MAGI2_4, Q86UL8 = target: MAGI2_4, Q86UL8
# MPP7, Q5T2T1 = target: T10, MPP7, Q5T2T1
# NHERF4_2, Q86UT5 = target: NHERF4_2, Q86UT5
# PDZRN3_1, Q9UPQ7 = target: T11, PDZRN3_1, Q9UPQ7
# SIPA1L2, Q9P2F8 = target: T12, SIPA1L2, Q9P2F8
# SNTA1, Q13424 = target: T13, SNTA1, Q13424
# Sequence of GRIP2_5, Q9C0E4 (Q9C0E4 544-642): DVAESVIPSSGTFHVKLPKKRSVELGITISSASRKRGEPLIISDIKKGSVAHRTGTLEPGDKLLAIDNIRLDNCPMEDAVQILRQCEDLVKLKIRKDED
# Sequence of DLG4_2, P78352 (P78352 155-259): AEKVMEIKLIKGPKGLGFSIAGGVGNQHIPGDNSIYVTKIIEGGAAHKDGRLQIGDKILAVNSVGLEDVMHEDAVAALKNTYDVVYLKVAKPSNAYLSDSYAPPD
# Sequence of NHERF4_2, Q86UT5 (Q86UT5 220-308): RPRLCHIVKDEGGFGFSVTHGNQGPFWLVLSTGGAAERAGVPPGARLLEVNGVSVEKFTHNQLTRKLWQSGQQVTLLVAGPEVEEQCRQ
# Sequence of FRMPD4, Q14CM0 (Q14CM0 67-160): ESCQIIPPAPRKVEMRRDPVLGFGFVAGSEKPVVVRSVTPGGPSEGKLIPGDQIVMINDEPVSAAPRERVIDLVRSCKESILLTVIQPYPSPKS
# Sequence of MAGI2_4, Q86UL8 (Q86UL8 772-865): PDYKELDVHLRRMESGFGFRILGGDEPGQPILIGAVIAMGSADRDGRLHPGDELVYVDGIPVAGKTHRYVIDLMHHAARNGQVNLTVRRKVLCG
# Sequence of CASK, O14936 (O14936 487-570): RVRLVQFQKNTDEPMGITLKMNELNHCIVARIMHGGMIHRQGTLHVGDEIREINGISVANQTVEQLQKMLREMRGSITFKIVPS
# Sequence of GORASP1, Q9BQQ3 (Q9BQQ3 1-208): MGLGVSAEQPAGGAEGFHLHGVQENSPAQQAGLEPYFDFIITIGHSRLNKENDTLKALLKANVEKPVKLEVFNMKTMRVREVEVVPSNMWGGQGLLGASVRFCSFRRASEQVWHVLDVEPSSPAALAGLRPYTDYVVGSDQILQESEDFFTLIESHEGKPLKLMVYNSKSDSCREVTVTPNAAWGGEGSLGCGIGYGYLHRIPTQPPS
# Sequence of GIPC2, Q8TF65 (Q8TF65 112-203): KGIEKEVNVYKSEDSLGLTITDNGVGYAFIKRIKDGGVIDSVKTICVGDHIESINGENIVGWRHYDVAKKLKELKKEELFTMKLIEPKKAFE
# Sequence of GRID2IP_1, A4D2P6 (A4D2P6 1-87): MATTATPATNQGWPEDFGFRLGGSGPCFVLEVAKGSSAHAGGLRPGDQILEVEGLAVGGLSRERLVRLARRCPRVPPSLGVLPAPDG
# Sequence of Inadl_2, Q8NI35 (Q8NI35 238-335): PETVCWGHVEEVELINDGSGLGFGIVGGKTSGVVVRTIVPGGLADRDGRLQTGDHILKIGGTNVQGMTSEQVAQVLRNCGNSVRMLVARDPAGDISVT
Binder,"pKd (ARHGEF11, O15085)","pKd (CASK, O14936)","pKd (DFNB31_1, Q9P202)","pKd (DFNB31_3, Q9P202)","pKd (DLG3_3, Q92796)","pKd (DLG4_2, P78352)","pKd (FRMPD4, Q14CM0)","pKd (GIPC2, Q8TF65)","pKd (GOPC, Q9HD26)","pKd (GORASP1, Q9BQQ3)","pKd (GORASP2, Q9H8Y8)","pKd (GRID2IP_1, A4D2P6)","pKd (GRIP1_3, Q9Y3R0)","pKd (GRIP1_4, Q9Y3R0)","pKd (GRIP2_5, Q9C0E4)","pKd (HTRA3, P83110)","pKd (Inadl_2, Q8NI35)","pKd (LIN7B, Q9HAP6)","pKd (LIN7C, Q9NUP9)","pKd (MAGI2_4, Q86UL8)",other results
"GSQSQVETEA [FKBP4, Q02790]",below the threshold,below the threshold,below the threshold,below the threshold,below the threshold,3.59,below the threshold,3.79,below the threshold,below the threshold,below the threshold,below the threshold,below the threshold,below the threshold,below the threshold,below the threshold,below the threshold,3.62,below the threshold,below the threshold,"pKd (MPP7, Q5T2T1): below the threshold; pKd (NHERF4_2, Q86UT5): below the threshold; pKd (PDZRN3_1, Q9UPQ7): below the threshold; pKd (SIPA1L2, Q9P2F8): below the threshold; pKd (SNTA1, Q13424): below the threshold"
"SRPHTNETSL [MCC, P23508]",4.3,below the threshold,4.28,below the threshold,3.95,3.83,4.49,4.08,3.9,below the threshold,below the threshold,below the threshold,below the threshold,below the threshold,below the threshold,below the threshold,below the threshold,3.64,3.65,below the threshold,"pKd (MPP7, Q5T2T1): below the threshold; pKd (NHERF4_2, Q86UT5): below the threshold; pKd (PDZRN3_1, Q9UPQ7): 4.99; pKd (SIPA1L2, Q9P2F8): below the threshold; pKd (SNTA1, Q13424): 4.47"
"FHSIKQSTAV [CRHR1, P34998]",5,below the threshold,4.39,below the threshold,4.4,4.93,below the threshold,below the threshold,4,below the threshold,below the threshold,below the threshold,below the threshold,below the threshold,below the threshold,below the threshold,below the threshold,below the threshold,below the threshold,4.42,"pKd (MPP7, Q5T2T1): below the threshold; pKd (NHERF4_2, Q86UT5): below the threshold; pKd (PDZRN3_1, Q9UPQ7): 4.17; pKd (SIPA1L2, Q9P2F8): below the threshold; pKd (SNTA1, Q13424): 3.71"

# Second part, led by results:
"pKd (ARHGEF11, O15085)","pKd (CASK, O14936)","pKd (DFNB31_1, Q9P202)","pKd (DFNB31_3, Q9P202)","pKd (DLG3_3, Q92796)","pKd (DLG4_2, P78352)","pKd (FRMPD4, Q14CM0)","pKd (GIPC2, Q8TF65)","pKd (GOPC, Q9HD26)","pKd (GORASP1, Q9BQQ3)","pKd (GORASP2, Q9H8Y8)","pKd (GRID2IP_1, A4D2P6)","pKd (GRIP1_3, Q9Y3R0)","pKd (GRIP1_4, Q9Y3R0)","pKd (GRIP2_5, Q9C0E4)","pKd (HTRA3, P83110)","pKd (Inadl_2, Q8NI35)","pKd (LIN7B, Q9HAP6)","pKd (LIN7C, Q9NUP9)","pKd (MAGI2_4, Q86UL8)",Binder,other results
below the threshold,below the threshold,below the threshold,3.81,below the threshold,3.61,below the threshold,below the threshold,below the threshold,4.33,4.61,below the threshold,below the threshold,below the threshold,below the threshold,4.64,4.99,3.97,below the threshold,below the threshold,"GDSSRKEYFI [GYPC, P04921]","pKd (MPP7, Q5T2T1): 5.18; pKd (NHERF4_2, Q86UT5): below the threshold; pKd (PDZRN3_1, Q9UPQ7): below the threshold; pKd (SIPA1L2, Q9P2F8): below the threshold; pKd (SNTA1, Q13424): below the threshold"
4.38,below the threshold,3.58,below the threshold,4.56,5.85,3.55,below the threshold,3.87,3.76,4.64,below the threshold,below the threshold,3.48,3.49,below the threshold,3.51,below the threshold,below the threshold,4.51,"ATKDKKITTV [EXOC4, Q96A65]","pKd (MPP7, Q5T2T1): below the threshold; pKd (NHERF4_2, Q86UT5): below the threshold; pKd (PDZRN3_1, Q9UPQ7): 3.52; pKd (SIPA1L2, Q9P2F8): 3.52; pKd (SNTA1, Q13424): 4.26"
